Test results reported in US20150203577A1 (Chugai, published 2015).

T1: mouse FcγRII extracellular domain, C-terminal His tag (mouse, UniProt P08101 30-210)
T1 construct: also called mFcγRII; mFcgRII
T1 sequence: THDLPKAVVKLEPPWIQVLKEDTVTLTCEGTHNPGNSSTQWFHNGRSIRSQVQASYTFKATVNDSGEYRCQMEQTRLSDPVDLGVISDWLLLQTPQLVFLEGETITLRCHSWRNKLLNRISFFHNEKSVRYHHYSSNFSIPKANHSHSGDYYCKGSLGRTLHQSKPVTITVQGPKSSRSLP

T2: mouse FcγRIII extracellular domain, C-terminal His tag (mouse, UniProt P08508 31-215)
T2 construct: also called mFcγRIII; mFcgRIII
T2 chain: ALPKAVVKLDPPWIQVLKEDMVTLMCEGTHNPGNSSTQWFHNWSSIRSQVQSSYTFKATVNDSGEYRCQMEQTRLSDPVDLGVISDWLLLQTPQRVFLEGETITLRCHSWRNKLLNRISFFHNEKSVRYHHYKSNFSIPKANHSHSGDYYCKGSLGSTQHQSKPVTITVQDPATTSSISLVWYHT


Tests used:
[1] = molecular target: T1, mouse FcγRII extracellular domain, …; test: SPR (Biacore T200), antibody captured on Protein L, mFcγR analyte
[2] = molecular target: T2, mouse FcγRIII extracellular domain, …; test: as above

Row | Binder | Kd [1] [nM] | relative mFcγRII-binding activity (mIgG1 = 1) [1] | Kd [2] [nM] | relative mFcγRIII-binding activity (mIgG1 = 1) [2]
1 | H237-MB846/MRAL-k0 (antibody, mouse IgG1, kappa, copies: 2 + 2) heavy: QVQLQESGPGLVKPSETLSLTCAVSGHSISHDHAWSWVRQPPGEGLEWIGFISYSGITNYNPSLQGRVTISRDNSKNTLYLQMNSLRAEDTAVYYCARSLARTTAMDYWGEGTLVTVSSAKTTPPSVYPLAPGSAAQTNSMVTLGCLVKGYFPEPVTVTWNSGSLSSGVHTFPAVLQSDLYTLSSSVTVPSSTWPSETVTCNVAHPASSTKVDKKIVPRDCGCKPCICEPNEVELVFIFPPKPKDVLTITLTPKVTCVVVDISDDDPEVQFSWFVDDVEVHTAQTQPREEQFNSTFRSVSELPIMHQDWLNGKEFKCRVNSDGFPAPIEKTISKTKGRPKAPQVYTIPPPKEQMAKDKVSLTCMITDFFPEDITVEWQWNGQPAENYKNTQPIMDTDGSYFVYSKLNVQKSNWEAGNTFTCSVLHEGLHNHHTEKSLSHSPGK light: not shown | 2.91 | 72.1 fold vs H237-mIgG1/MRAL-k0 | 133 | 2.1 fold vs H237-mIgG1/MRAL-k0
2 | H237-MB849/MRAL-k0 (antibody, mouse IgG1, kappa, copies: 2 + 2) heavy: QVQLQESGPGLVKPSETLSLTCAVSGHSISHDHAWSWVRQPPGEGLEWIGFISYSGITNYNPSLQGRVTISRDNSKNTLYLQMNSLRAEDTAVYYCARSLARTTAMDYWGEGTLVTVSSAKTTPPSVYPLAPGSAAQTNSMVTLGCLVKGYFPEPVTVTWNSGSLSSGVHTFPAVLQSDLYTLSSSVTVPSSTWPSETVTCNVAHPASSTKVDKKIVPRDCGCKPCICEPNEVELVFIFPPKPKDVLTITLTPKVTCVVVDISKDDPEVQFSWFVDDVEVHTAQTQPREEQFNSTFRSVSELPIMHQDWLNGKEFKCRVNSDGFPAYIEKTISKTKGRPKAPQVYTIPPPKEQMAKDKVSLTCMITDFFPEDITVEWQWNGQPAENYKNTQPIMDTDGSYFVYSKLNVQKSNWEAGNTFTCSVLHEGLHNHHTEKSLSHSPGK light: not shown | 6.68 | 31.4 fold vs H237-mIgG1/MRAL-k0 | 436 | 0.6 fold vs H237-mIgG1/MRAL-k0
3 | H237-MB848/MRAL-k0 (antibody, mouse IgG1, kappa, copies: 2 + 2) heavy: QVQLQESGPGLVKPSETLSLTCAVSGHSISHDHAWSWVRQPPGEGLEWIGFISYSGITNYNPSLQGRVTISRDNSKNTLYLQMNSLRAEDTAVYYCARSLARTTAMDYWGEGTLVTVSSAKTTPPSVYPLAPGSAAQTNSMVTLGCLVKGYFPEPVTVTWNSGSLSSGVHTFPAVLQSDLYTLSSSVTVPSSTWPSETVTCNVAHPASSTKVDKKIVPRDCGCKPCICEPNEVELVFIFPPKPKDVLTITLTPKVTCVVVDISKDDPEVQFSWFVDDVEVHTAQTQPREEQFNSTFRSVSELPIMHQDWLNGKEFKCRVDSDGFPAPIEKTISKTKGRPKAPQVYTIPPPKEQMAKDKVSLTCMITDFFPEDITVEWQWNGQPAENYKNTQPIMDTDGSYFVYSKLNVQKSNWEAGNTFTCSVLHEGLHNHHTEKSLSHSPGK light: not shown | 4.58 | 45.8 fold vs H237-mIgG1/MRAL-k0 | 308 | 0.9 fold vs H237-mIgG1/MRAL-k0
4 | H237-MB850/MRAL-k0 (antibody, mouse IgG1, kappa, copies: 2 + 2) heavy: QVQLQESGPGLVKPSETLSLTCAVSGHSISHDHAWSWVRQPPGEGLEWIGFISYSGITNYNPSLQGRVTISRDNSKNTLYLQMNSLRAEDTAVYYCARSLARTTAMDYWGEGTLVTVSSAKTTPPSVYPLAPGSAAQTNSMVTLGCLVKGYFPEPVTVTWNSGSLSSGVHTFPAVLQSDLYTLSSSVTVPSSTWPSETVTCNVAHPASSTKVDKKIVPRDCGCKPCICEPNEVELVFIFPPKPKDVLTITLTPKVTCVVVDISKDDPEVQFSWFVDDVEVHTAQTQPREEQFNSTFRSVSELPIMHQDWLNGKEFKCRVNSDGFPAPIYKTISKTKGRPKAPQVYTIPPPKEQMAKDKVSLTCMITDFFPEDITVEWQWNGQPAENYKNTQPIMDTDGSYFVYSKLNVQKSNWEAGNTFTCSVLHEGLHNHHTEKSLSHSPGK light: not shown | 4.81 | 43.7 fold vs H237-mIgG1/MRAL-k0 | 358 | 0.8 fold vs H237-mIgG1/MRAL-k0
5 | H237-MB847/MRAL-k0 (antibody, mouse IgG1, kappa, copies: 2 + 2) heavy: QVQLQESGPGLVKPSETLSLTCAVSGHSISHDHAWSWVRQPPGEGLEWIGFISYSGITNYNPSLQGRVTISRDNSKNTLYLQMNSLRAEDTAVYYCARSLARTTAMDYWGEGTLVTVSSAKTTPPSVYPLAPGSAAQTNSMVTLGCLVKGYFPEPVTVTWNSGSLSSGVHTFPAVLQSDLYTLSSSVTVPSSTWPSETVTCNVAHPASSTKVDKKIVPRDCGCKPCICEPNEVELVFIFPPKPKDVLTITLTPKVTCVVVDISKDDPEVQFSWFVDDVEVHTAQTQPREELFNSTFRSVSELPIMHQDWLNGKEFKCRVNSDGFPAPIEKTISKTKGRPKAPQVYTIPPPKEQMAKDKVSLTCMITDFFPEDITVEWQWNGQPAENYKNTQPIMDTDGSYFVYSKLNVQKSNWEAGNTFTCSVLHEGLHNHHTEKSLSHSPGK light: not shown | 4.81 | 43.7 fold vs H237-mIgG1/MRAL-k0 | 213 | 1.3 fold vs H237-mIgG1/MRAL-k0

Results, then the binder that gave them:

Row | Kd [1] [nM] | relative mFcγRII-binding activity (mIgG1 = 1) [1] | Kd [2] [nM] | relative mFcγRIII-binding activity (mIgG1 = 1) [2] | Binder
6 | 4.15 | 50.6 fold vs H237-mIgG1/MRAL-k0 | 225 | 1.3 fold vs H237-mIgG1/MRAL-k0 | H237-MB854/MRAL-k0 (antibody, mouse IgG1, kappa, copies: 2 + 2) heavy: QVQLQESGPGLVKPSETLSLTCAVSGHSISHDHAWSWVRQPPGEGLEWIGFISYSGITNYNPSLQGRVTISRDNSKNTLYLQMNSLRAEDTAVYYCARSLARTTAMDYWGEGTLVTVSSAKTTPPSVYPLAPGSAAQTNSMVTLGCLVKGYFPEPVTVTWNSGSLSSGVHTFPAVLQSDLYTLSSSVTVPSSTWPSETVTCNVAHPASSTKVDKKIVPRDCGCKPCICEPNEVELVFIFPPKPKDVLTITLTPKVTCVVVDISKDDPEVQFSWFVDDVEVHTAQTQPREELFNSTFRSVSELPIMHQDWLNGKEFKCRVNSDGFPAPIYKTISKTKGRPKAPQVYTIPPPKEQMAKDKVSLTCMITDFFPEDITVEWQWNGQPAENYKNTQPIMDTDGSYFVYSKLNVQKSNWEAGNTFTCSVLHEGLHNHHTEKSLSHSPGK light: not shown
7 | 3.44 | 61 fold vs H237-mIgG1/MRAL-k0 | 154 | 1.8 fold vs H237-mIgG1/MRAL-k0 | H237-MB852/MRAL-k0 (antibody, mouse IgG1, kappa, copies: 2 + 2) heavy: QVQLQESGPGLVKPSETLSLTCAVSGHSISHDHAWSWVRQPPGEGLEWIGFISYSGITNYNPSLQGRVTISRDNSKNTLYLQMNSLRAEDTAVYYCARSLARTTAMDYWGEGTLVTVSSAKTTPPSVYPLAPGSAAQTNSMVTLGCLVKGYFPEPVTVTWNSGSLSSGVHTFPAVLQSDLYTLSSSVTVPSSTWPSETVTCNVAHPASSTKVDKKIVPRDCGCKPCICEPNEVELVFIFPPKPKDVLTITLTPKVTCVVVDISKDDPEVQFSWFVDDVEVHTAQTQPREELFNSTFRSVSELPIMHQDWLNGKEFKCRVDSDGFPAPIEKTISKTKGRPKAPQVYTIPPPKEQMAKDKVSLTCMITDFFPEDITVEWQWNGQPAENYKNTQPIMDTDGSYFVYSKLNVQKSNWEAGNTFTCSVLHEGLHNHHTEKSLSHSPGK light: not shown
8 | 4.79 | 43.8 fold vs H237-mIgG1/MRAL-k0 | 295 | 1 fold vs H237-mIgG1/MRAL-k0 | H237-MB851/MRAL-k0 (antibody, mouse IgG1, kappa, copies: 2 + 2) heavy: QVQLQESGPGLVKPSETLSLTCAVSGHSISHDHAWSWVRQPPGEGLEWIGFISYSGITNYNPSLQGRVTISRDNSKNTLYLQMNSLRAEDTAVYYCARSLARTTAMDYWGEGTLVTVSSAKTTPPSVYPLAPGSAAQTNSMVTLGCLVKGYFPEPVTVTWNSGSLSSGVHTFPAVLQSDLYTLSSSVTVPSSTWPSETVTCNVAHPASSTKVDKKIVPRDCGCKPCICEPNEVELVFIFPPKPKDVLTITLTPKVTCVVVDISKDDPEVQFSWFVDDVEVHTAQTQPREEQFNSTFRSVSELPIMHQDWLNGKEFKCRVNSDGFPAPIERTISKTKGRPKAPQVYTIPPPKEQMAKDKVSLTCMITDFFPEDITVEWQWNGQPAENYKNTQPIMDTDGSYFVYSKLNVQKSNWEAGNTFTCSVLHEGLHNHHTEKSLSHSPGK light: not shown
